Assay results taken from the DeepSol protein solubility set.

Test: soluble on expression in E. coli; label from the status in PepcDB or PDB records

| Sequence | soluble on expression in E. coli |
| --- | --- |
| MTDNTLTPQMLTGLSTDHLVVLSGAHRLQPQAAEAFQAMQQAAKVAGFDLQPASTFRDFGRQLAIWNGKFRGERPVLDQDSQPIDIFSLDTAARCEAILRWSALPGTSRHHWGSDLDIYDPSRLPTGEKLQLEPWEYDAGGYFYPLTQWLSAHMAEFGFYRPFATDNGGVAVEPWHLSYRPLAEQAEHLLTPKILLAAWQSQDVAGSEWLASHLPMIFSRFIYLK | not soluble |
| MGSSHHHHHHSSGLVPRGSHMASEVDKRREINNEHPLLMMPLYANGEEFNQGKYTFWGGDTLTGKWENIPDDLKPYTVIQLHPDDLPKRDGAARDFYEHMLEEAAKYVNPKTGKNEPIPVILTVYTAGNMPYYTSAHWLSTSWIDKMYQKYPNLHGIFSTANYWIWANDIENKAADYLKVSAKNGGYFIWAEQNNGSAIEKAFGKNGKIAFQKSVDKYWKNLIFMFKNTPAAEGNDSTTESYMKGLWLSNHTYQWGGLMDTWKWYETGKWKLFASGNIGKSQGDRQWLTEPESMLGEEALGVYLNGGVVYNFEHPAYTYGVNNKESLLFSEVIKEFFRYVIAHPAPSKEKVLEDTKVFIHGDYSNKGNGKFFVNVNTDREQTPLYMTGRYNVIPAIPGVLKTDKLKESVSSSRIQIKEITSPEFSSTQARKEYLNKLYPMNYEGDIFAQKLDNRWFVYNYKVNENVKQTGKLKFNSLEMNVEFEPHTYGIFERISNGLKVNLNNFRTNKDSLWSNAQDANQAKKLPQLTKKGAIKWIEEHYIKDTQFGEKRVTKIVLRGIDKLPTIHSLSGTNNSYDQPSLNFDQKNHMVTITINSNGNLEFELHF | soluble |
| MSLESMLSHPPIPIADMAEHTERLKANDSLKLSQEYESIDPGQQFTWEHSNLEVNKPKNRYANVIAYDHSRVILQPIEGIMGSDYINANYVDGYRRQNAYIATQGPLPETFGDFWRMVWEQRSATIVMMTRLEEKSRIKCDQYWPNRGTETYGFIQVTLLDTIELATFCVRTFSLHKNGSSEKREVRQFQFTAWPDHGVPEYPTPFLAFLRRVKTCNPPDAGPIVVHCSAGVGRTGCFIVIDAMLERIKPEKTVDVYGHVTLMRSQRNYMVQTEDQYSFIHEALLEAVGCGNTEVPARSLYAYIQKLAQVEPGEHVTGMELEFKRLANSKAHTSRFISANLPCNKFKNRLVNIMPYESTRVCLQPIRGVEGSDYINASFIDGYRQQKAYIATQGPLAETTEDFWRMLWENNSTIVVMLTKLREMGREKCHQYWPAERSARYQYFVVDPMAEYNMPQYILREFKVTDARDGQSRTVRQFQFTDWPEQGVPKSGEGFIDFIGQVHKTKEQFGQDGPISVHCSAGVGRTGVFITLSIVLERMRYEGVVDIFQTVKMLRTQRPAMVQTEDEYQFCYQAALEYLGSFDHYATEGHHHHHH | soluble |
| MGSDKIHHHHHHMLSVFVVNLRSNSAPFSFSRLLMHTTIVNERSLRTCNFPITLQDIRTLKELYRLKAETRDLRKPIVRNIMKQRVVGKGCLESLKNALYSLETIYIDDYTGQRLLRIDGMKQIEVDLTYEIRELQKDIYYLEYGEDRFIEYLAKFIPGFTDYVTEGVEMLRGKSFNAFITDRDGTTNNYCGRYRSSIQPIYNSVFLSRFAKNCCRYPMIVTSAPLKDFGILNVSINPEHIFVYAGSKGREFIDIDGQFHSFPIEPGKQELIRLLNERMQLLLLDPSFEKFNFIGSALQMKFGQTTIARQDITRSVNEAESAAFLEKIKGIVRDIDPEGKNFRIEDTGLDIEIILTIDVDPKTGMIRDFDKGDGLEFICRKMNIDHTGEPVLVCGDTSSDIPMLKKAMEMYDDVWAIFVTRDEKLMQRVREICPKSYMVPYPDILLTILGLLSL | not soluble |
| MGSDKIHHHHHHMVTFSIRIISSDRIFLVAEVKALERVYVIGHKNPDTDSVCSAIGYAHFKNNVEKGKTFIPARSGDLTNESLFVLKYFGMNPPLHIETLEPTVEDLELKNPIFVTPDTSAYDVAMLMESRGIKNVPVVSKEKMIGVVTESNIARVYVRRLKIEPLVIHPVPFDQLVRILKAEVVCDYMKEKTVSGKVHIAVDALHVLLGKIEIGDVVIVGDNEPAQIALLEKGAKLMIVVNNAPVSNRVLEIAKEKNAAVLRVKFDAFSAAKLINLSLPVTLVMSKKFPTVTKKDTLEEVKEIVFTSKIRAAFVEDEKGRLCGVITRTDLLKDVRKKVILVDHNEITQAPEGVEKAEILEIIDHHRLGGLSTLNPVFFYNEPVGSTSTIVAEFFLKNGVKMEREIAGILLSGIVSDTLFFKLSTTTEKDRKMANFLADVAKLDLEKFAKKLLKEGMKIPEDVDPAELLKRDVKVYEMGEESFAVSQIMTSDFSTLLKEKERFMNTLKTLKGEFGVKHFFVLFTNPVEEASLLMMDGDQKLVEKAFNAEKKDGLFLLKGVMSRKKDFVPKIGEVLRRER | not soluble |
| MSLQKLAVFDFDSTLVNAETIESLARAWGVFDEVKTITLKAMNGETDFHKSLILRVSKLKNMPLKLAKEVCESLPLFEGALELVSALKEKNYKVVCFSGGFDLATNHYRDLLHLDAAFSNTLIVENDALNGLVTGHMMFSHSKGEMLLVLQRLLNISKTNTLVVGDGANDLSMFKHAHIKIAFNAKEVLKQHATHCINEPDLALIKPLIEGHHHHHH | soluble |
| MSRIHTLTMPKWGLSMTEGRVDAWLKEEGAHIEKGDEVLDVETDKISSSVEAPFSGVLRRKVAREDETLAVGALLGVVVEGEASDEEIDALVQRFQAEFVPADEDAGDSGPAPRKVELDGRLLRYFDRGEGDPALLLIHGFGGDLNNWLFNHEALAAERRVIALDLPGHGESGKALVRGDLDELSGSVLALLDHLDLEQVHLAGHSMGGAVALNCARLAPQRVLSLSLIGSAGLGEEINGDYLRGFVEAANRNALKPQLVQLFSDPALVTRQMLEDMLRYKRLEGVDAALRQLLDNLFADGRQRNDLRAVANEGRQPVLAIWGSDDAIIPARHAEGLPAQVEIIPGQAHMVQMEAAEQVNRLLLDFLRQH | not soluble |
| MSLSNISLTTLGGVRENGKNMYIAEIGESIFVLNVGLKYPENEQLGVDVVIPNMDYLFENSDRIAGVFLTHGHADAIGALPYLLAEAKVPVFGSELTIELAKLFVKGNDAVKKFNDFHVIDENTEIDFGGTVVSFFPTTYSVPESLGIVLKTSEGSIVYTGDFKFDQTASESYATDFARLAEIGRDGVLALLSDSANADSNIQVASESEVRDEITQTIADWEGRIIVAAVSSNLSRIQQIFDAADKTGRRIVLTGFDIENIVRTAIRLKKLSLANEILLIKPKDMSRFEDHELIILETGRMGEPINGLRKMSIGRHRYVEIKDGDLVYIATAPSIAKEAFVARVENMIYQAGGVVKLITQSLHVSGHGNVRDLQLMINLLQPKYLFPVQGEYRELDAHAKAAMAVGMLPERIFIPKKGTTMAYENGDFVPAGSVSAGDILIDGNAIGDVGNVVLRDRKVLSEDGIFIVAITVNRREKKIVARARVHTRGFVYLKKSRDILRESSELINQTVEEYLQGDDFDWADLKGKVRDNLTKYLFDQTKRRPAILPVVMEAEGHHHHHH | not soluble |
| HARKSLTVLVVGESARAENFGILGYGRNTTPNLNKENGLVAFTDVYSCGTETAVSVPCMFSNMGRKNYNATKARNQEGLLDVLKHAGIEVAWRDNQSGCKGTCDRVTFQDVSNLTDPLLCNSHECRDEILLQNLQGFIDSLDKDTVLVLHQMGSHGPEYYKRYPKEFEKFTPVCESNALNNCSRDSIVNAYDNTLLYTDHVLSTLIDLLRSNQAKVDTAMVYLSDHGESLGEYNLFLHGTPYVLAPDQQKHVPMLIWLSDTYQKSFAVTPDCLAKQRNAPLSQDNLFHSMLGLLKVDTKVYDPSLDMFAGCRSELAAADKQ | not soluble |
| MGSDKIHHHHHHMKVTLIGIDLAKNVFQVCGINQAGKSVFNRALKRSQLMAFLFKYPDSIIAMEACSGSNYWGRELLTKGFEVRLIPPQHVKPFVKGNKNDRNDAFAICEAALRPNLTFVQPRTLEQTDMILAHRIRERNVENRTSLINQIRGLLNEYGVVIAQGKERLKLAIPELLENADSGLTEIARQHFQALLEEWKQVDRTIKNLEKNIKSQAKLNHQTNRLMGIKGVAEITATAAVAFAGNGAQYHNGRHFAANLGLVPREYSSGGKQKLGKITKRGNNYLRRLLVQGAWSIIRYVGNSTDRMSVWAKKLIERRGKHKAAVAVANKLARIIWSMLYNQTEYRAN | not soluble |
| MTREAFAPYQCLATDLLKYLPSDQNDGSHDLAHIHRVWVNAHRIQRVEGGDLEILLAATVLHDCVAVEKHSPLRGQASTLSANKAASVLAEMGWPSGRVEQVVHAIKTHSYSAGFEPLTREACILQDSDRLDAIGAVGIARCFYVAGRMGSALYDFENPFAQQRAYQDGAYAIEHFQTKLLKLASGFKTQEGARLAAERHTRLETFLTQFMDEITGAGLEHHHHHH | soluble |
| MIGCLCIHGFTGSPEEVAPLADYLRERTDWMIETPTLPGHGSELRLKGITYDQWIAAAEQAFLALHHRCSVVYVIGFSMGGVIAVYLAEKYPVAKLVLLSAAFYYVNPRQLWRDIREMFANGWKGAREHPLFLRYRNKMMATPFSAVREFRKLVRDVRPRLPRVAAPALIVQGEKDGIVPLKSAYYLYEQIGSAEKKLLLLPNSFHHVCHSIDRHVLFAEVETFLRAAHAHHCKSPHNMV | not soluble |
| GSPGLKGDKGIPGDKGAKGESGLPDVASLRQQVEALQGQVQHLQAAFSQYKKVELFPNGQSVGEKIFKTAGFVKPFTEAQLLCTQAGGQLASPRSAAENAALQQLVVAKNEAAFLSMTDSKTEGKFTYPTGESLVYSNWAPGEPNDDGGSEDCVEIFTNGKWNDRACGEKRLVVCEF | soluble |
| MGSDKIHHHHHHSKNSLPILDSFLFNLEGNTLTVTASDAETRLVTSVDVMNAQGAGLFAVSAKILLDPLKELPEQPLTFDINDENLEIFIHFQNGKYNFIGQKGDTYPQQKPLNDNAISISMDAQMLLNGISRSLFATADDELRPVMNGVYFDIHTDDLTFVASDGHKLVRLRNLAVKSPERASFILPKKPANLLKNLLAKESEQVLIKFDDNNAYITCTNFEMVCRLIEGRYPNYNSVIPQENPFKVTIDRISFLNALKRVSVFSNPASSLVKLHLKDSLITVSAQDIDFSTSAEERIVCQFDGTELSIGFKATYLIEILGNISSEEVVLELADPSRAGLIVPSENDEDEDLLMLLMPMMLND | not soluble |
| MVEIDFNKENEEDFSDPPGFVDDVTDDVLVPDVLHKKPTIDEFEDNCVFIAGIPVVGADRLGKLQSVLKKVLERLDPAVKLYIPPSPEGGCLGVLLTEWADQRSAQFAVKSLNGYAFDKNHTFTARSFKDMKQLEAPSDHWTTPEKQAYNDVGDLWWWLQNERCRDQFAISHDKLGVPTVGVFTNMKGNDPELAGDADKAERANWTETVFTWSPHGSYLSTIHKQGIILWGGKDYARAHRFAHTNVQYIDFSPWETYLVTYAAPEESNSWGDCEKDSLRIWDVRTGELKKAFSTFELTGRTQLPTWPFFRWSFDEKYFACLKAPEKDKLEREQKINGISIFESEKFELYEGRPVNIENIKQFEWSPTSTVLAYYSECTDAVPAEFGLLQVPSMQRLRSARVHNVADAQMFWQKSGKRLAFYTMRFKKKEYRETGEVKYVGGCQYHVDIFEIDKKDVSLMNLPLSEPFIHFDWDPEGDKFCVLVGNTAKATPQVYKIEANSHAPKLVSKLDAGVHFNEVQFAPKGGWLAVLAKVSAGGNVYFIDTSLSEAKRTNVIEHPLFNKGYWDPTGRYFVTCSTLGGRAGADLGYRIFTFQGRELCRKNLDRLAQFKWRPRPPVKLSEQKQREIKKNLKKTAAKFIKQDDDEKCRASQEVVEKRRKIMAAFDIIRSRNREQLDATRDERISLRNGVDTEAQLDEDEFVDEEITIALSTSKTQAPLTEEEMRD | not soluble |
